Target: purified recombinant human α-synuclein protein, P37840

B1: purified guinea pig liver tTGase (protein)
chain: AEDLILERCDLQLEVNGRDHRTADLCRERLVLRRGQPFWLTLHFEGRGYEAGVDTLTFNAVTGPDPSEEAGTMARFSLSSAVEGGTWSASAVDQQDSTVSLLLSTPADAPIGLYRLSLEASTGYQGSSFVLGHFILLYNPRCPADAVYMDSDQERQEYVLTQQGFIYQGSAKFINGIPWNFGQFEDGILDICLMLLDTNPKFLKNAGQDCSRRSRPVYVGRVVSAMVNCNDDQGVLQGRWDNNYSDGVSPMSWIGSVDILRRWKDYGCQRVKYGQCWVFAAVACTVLRCLGIPTRVVTNFNSAHDQNSNLLIEYFRNESGEIEGNKSEMIWNFHCWVESWMTRPDLEPGYEGWQALDPTPQEKSEGTYCCGPVPVRAIKEGHLNVKYDAPFVFAEVNADVVNWIRQKDGSLRKSINHLVVGLKISTKSVGRDEREDITHTYKYPEGSEEEREAFVRANHLNKLATKEEAQEETGVAMRIRVGQNMTMGSDFDIFAYITNGTAESHECQLLLCARIVSYNGVLGPVCSTNDLLNLTLDPFSENSIPLHILYEKYGDYLTESNLIKVRGLLIEPAANSYVLAERDIYLENPEIKIRVLGEPKQNRKLIAEVSLKNPLPVPLLGCIFTVEGAGLTKDQKSVEVPDPVEAGEQAKVRVDLLPTEVGLHKLVVNFECDKLKAVKGYRNVIIGPA
- formation of high molecular weight aggregates of α-synuclein (in vitro cross-linking reaction, SDS/PAGE and Western blot): In the presence of DTT, the reduced form of tTGase induced the formation of high molecular weight aggregates of α-synuclein

From US20060211624A1, “Methods and compositions for the treatment of parkinson's disease and other alpha-synucleinopathies” (Goverment of the US, as Represented by, priority 2003, published 2006)
